The target of the data set is biotinylated H3 peptide (first 21 amino acids of Histone H3 with a Biotin label on the CO2H terminus, Upstate Biotechnology), P68431.

This is an account of results in patent US20060257928.

B1: SUV39H1(82-412)-GST protein (protein)
chain: CVRILKQFHKDLERELLRRHHRSKTPRHLDPSLANYLVQKAKQRRALRRWEQELNAKRSHLGRITVENEVDLDGPPRAFVYINEYRVGEGITLNQVAVGCECQDCLWAPTGGCCPGASLHKFAYNDQGQVRLRAGLPIYECNSRCRCGYDCPNRVVQKGIRYDLCIFRTDDGRGWGVRTLEKIRKNSFVMEYVGEIITSEEAERRGQIYDRQGATYLFDLDYVEDVYTVDAAYYGNISHFVNHSCDPNLQVYNVFIDNLDERLPRIAFFATRTIRAGEELTFDYNMQVDPVDMESTRMDSNFGLAGLPGSPKKRVRIECKCGTESCRKYLF
For B1, the “Histone methyl transferase activity (radioactive assay, 14C labelled methylated H3 peptide)” value is given as “Histone methyl transferase activity of truncated protein was confirmed by radioactive assay”.
